Test results reported in article PMC2275143 (Nucleic Acids Research, 2008).

Molecular target: the molecule itself
Assay: AUC

B1: Nep1 from Methanocaldococcus jannaschii (native protein) (enzyme, UniProt Q57977 2-205, looked up)
chain: TYNIILAKSALELIPEEIKNKIRKSRVYKYDILDSNYHYKAMEKLKDKEMRGRPDIIHISLLNILDSPINHEKKLNIYIHTYDDKVLKINPETRLPRNYFRFLGVMEKVLKGERNHLIKMEEKTLEDLLNEINAKKIAIMTKTGKLTHPKLLKEYDTFIIGGFPYGKLKINKEKVFGDIKEISIYNKGLMAWTVCGIICYSLSF
stoichiometry N: 2
